The text below walks through data of PMC12678768.

This assay concerns the target HTLV-1 CA C-terminal domain, HTLV-1 CACTD (A128-L214) (Human T-cell Leukaemia Virus type 1, subtype C, isolate Aus-GM). Nature of the assay: SEC; HTLV-1 CACTD on HiLoad 26/600 Superdex 75 pg, 20 mM HEPES (pH 7.0), 40 mM NaCl; purified as a dimer (Supplementary Fig. 3d). (In general: SEC sorts molecules by how far they enter the pores of the column.)

As usually defined, the stoichiometry N is the number of molecules, sites or subunits per partner or assembly. “HTLV-1 CA C-terminal domain, HTLV-1 CACTD (A128-L214) (domain or fragment)” had a stoichiometry N of 2.
